IntAct's records for PubMed 24485456

B1: Synaptogenesis protein syg-1 (Caenorhabditis elegans), B1Q236 (parent)
chain: MVRWQTWPLLLLFQLVTCQQLQQRIVEAPKDTLAAVGETAILTCRVEHQQGPVQWMKDDFGLGTDRDKPLPGNKRYRMVGSAANGEYNLEISNVTLFDDDDFACQISESDHAKAVVSSKAKLTVLVRPTPPKIVKSHHSLKAIAGDPITQSCLSRKGKPPPTIGWAIASDEHGKHIVSWLGESRSKFGGIHAKPEISQETVIAHVNETTQVEEGGNNSREDSSIYSIMSNLSFIPRPEDDHKYLICISQHMTFPNKIEVDSVKLSLRYAPQINLTVASKLPLRENGSALLACNVNAKPLDNVKISWYKGNQKLRETGDTLTFETLKMEDHNRDIFCEATNEIGTTRGSIKLNVAFGARIMSTSQDKEVNEGDNAFFHCATLANPAPAIFWTRGDSDEIIGHGENLTLENVRTWQQGNYNCTATVEGFRKQILSHYLHIRGPPTVSMKDEVSASLDEATEIICEISGRPKTNNVRWTVNGKEINFNNGRITVHQYPKPYGKESILKIKDLKEEDFGVYNCSANNGLGFDNRGTLLKKRNILDWIVITAKFDRMVALAIISAGVLLVSLLCCLCMCRSNCRSRKSKFIDDQSDVTVKCEALDGQYFPEMYSSSPVDNVHLSTKDYISIPQNNPDLDFLGATGSFGPPGGLYPKCFNNSANEYIYNRYEHSYGSFGSGLSTPGGVSDMYGVAMSDKLPVMETLQEVETPKTSNYNFLSSPEVVRPISRTSTHV
partner: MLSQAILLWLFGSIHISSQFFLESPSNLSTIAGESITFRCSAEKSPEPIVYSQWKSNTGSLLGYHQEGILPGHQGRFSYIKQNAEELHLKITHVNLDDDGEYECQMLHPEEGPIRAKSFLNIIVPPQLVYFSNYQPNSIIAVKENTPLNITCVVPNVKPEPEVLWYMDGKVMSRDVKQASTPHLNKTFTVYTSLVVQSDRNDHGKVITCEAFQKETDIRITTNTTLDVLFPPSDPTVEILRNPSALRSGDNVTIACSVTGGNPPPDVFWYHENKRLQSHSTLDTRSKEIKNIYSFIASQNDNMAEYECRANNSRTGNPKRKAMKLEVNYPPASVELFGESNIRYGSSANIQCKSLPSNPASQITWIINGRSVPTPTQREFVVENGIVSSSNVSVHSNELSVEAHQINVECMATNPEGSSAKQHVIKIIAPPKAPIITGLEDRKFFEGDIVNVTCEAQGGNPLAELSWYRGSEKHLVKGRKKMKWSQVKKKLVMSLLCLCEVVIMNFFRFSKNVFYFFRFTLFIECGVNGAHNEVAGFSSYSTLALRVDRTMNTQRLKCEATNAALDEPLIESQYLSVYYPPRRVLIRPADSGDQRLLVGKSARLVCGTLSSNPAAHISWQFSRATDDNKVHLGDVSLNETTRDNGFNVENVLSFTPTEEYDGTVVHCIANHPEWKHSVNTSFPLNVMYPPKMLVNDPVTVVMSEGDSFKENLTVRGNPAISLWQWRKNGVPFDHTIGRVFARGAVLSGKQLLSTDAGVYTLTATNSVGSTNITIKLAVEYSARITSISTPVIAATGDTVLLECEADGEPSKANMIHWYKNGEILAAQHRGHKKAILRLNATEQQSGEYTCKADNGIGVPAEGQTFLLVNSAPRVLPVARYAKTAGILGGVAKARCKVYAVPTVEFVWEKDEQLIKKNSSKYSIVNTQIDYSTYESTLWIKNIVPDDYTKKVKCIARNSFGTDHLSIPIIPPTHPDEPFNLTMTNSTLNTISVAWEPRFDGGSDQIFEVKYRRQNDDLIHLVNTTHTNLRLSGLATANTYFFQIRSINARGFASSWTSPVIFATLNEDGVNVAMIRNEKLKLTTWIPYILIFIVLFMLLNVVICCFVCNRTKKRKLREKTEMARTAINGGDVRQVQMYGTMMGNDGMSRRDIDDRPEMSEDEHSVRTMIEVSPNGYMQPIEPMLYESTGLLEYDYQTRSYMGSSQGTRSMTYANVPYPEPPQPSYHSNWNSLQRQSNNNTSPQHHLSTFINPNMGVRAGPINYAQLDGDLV
B2: Synaptogenesis protein syg-2 (Caenorhabditis elegans), Q9U3P2 (parent)
chain: B1 partner
partner: B1 chain

Variants of: B1
Settings: with syg2_caeel syg-2, Q9U3P2

| effect of a mutation on the interaction | Variant |
| --- | --- |
| disrupting interaction strength | F60A |
| decreasing interaction strength | Q105A |
| disrupting interaction strength | Q54A;M56A;F60A;S107A |
| disrupting interaction strength | Q54A;F60A |
| decreasing interaction strength | Q54A |

Variants of: B2
Settings: with syg1_caeel syg-1, B1Q236

| effect of a mutation on the interaction | Variant |
| --- | --- |
| decreasing interaction strength | Q53A |
| decreasing interaction strength | L61A |
| decreasing interaction strength | R115A |
| disrupting interaction strength | Q105A |
